From the DeepSol protein solubility set

Test: soluble on expression in E. coli; label from the status in PepcDB or PDB records

Q: With “MGSDKIHHHHHHMKEQKLSNRFCPEGMTVEEWQVGLRREFAEQNPFDVEHLDENRIWGDYLVANGRNRYRVAFRGVRSERNYCSCLDFRTNGLGTCKHIEAVTLFLQDQVPGYPWGEFDYTPEYSSIYVSYKGGRSIKMRVGREETARFEALRARFFDESGTLPPENYSFLPQICDEAKDIAASFRCYEDVFDLTQEHCRRMEWQDYLRETNPDKRVDNEYTADMPEEMRRHVYDLAYEGHGVMVGLPSDVIVREVVALADVYLRDQPGATGYVIINDPQRFILWRNAFANPALRRLPIEVMHASAFVKKVANNVPPCTFMFVEQAARLKEWRDPVSVAIKRMQIDHLYMNLETIEDLTPVQFSSVVQHIDPFILGPFYRFIRDYRPIFPLRNDGSNLPDDVRDFMFLYTSDSIREMNEMLPPIRTAEILLHGTDAEEEIDKLLRHLNRVLSNDTLREVFLKRISMIVGAS” as the sequence, how does the “soluble on expression in E. coli” value read?
A: not soluble

Q: For “MGSDKIHHHHHHMKEQYKIIVLSDELSKEKIQNTLDKNKCKTIVHLVDVSAIVQIENSFQYIVIWRMDAEKITNELINRGVQSTKIINLTKYMYEWRNKLISIYQINPDLMSLYISMKKAKGDPTYELFATGLSYPHCGISTELLSKKSIKLTLPSQDLYYDYLIASQLLSNNHSFQYCLIGIAYFSFYFDMSLSSESYRIHKVYYPLFQDGHHTVVHSHLPTDGFSHLDTPKPLFSIFNMHFEYILLDELKNESLILPWIHAEWNTTPPHIPFEEHGKIRAASHAKLSYPHTLVENKTIFKKYLELLLKHDIKPLIVVFPVTSHYFNCSSKKLKEDFYNVIKDFQSQYSFQIIDLFDSPLFCDDDFYDSDHMNKKGANKMSVLLNMFIQERKV”, which “soluble on expression in E. coli” value is on record?
A: not soluble

Q: For “MGSDKIHHHHHHMKFLFIVQGEGRGHLTQAITLEEMLLRNGHEVVEVLVGESSSRILPGFFNRNIQAPVKRFISPNFLPAADNKRANLKKSFTYNLLRIPEYFRSMCYINQRIKETGAEVVINFYELLTGLTYALFRPSVPYVCVGHQYLFLHQNFEFPDKNSFELRMLRFFTKMTAVRSSKKLALSFNDMEPDRGQQVVVVPPLIRQEVTAIQPEEGNYIHGYMVNSGFADSVEEFHTIYPEVPLRFFWDKADAEEVTRIDETLSFYQIDDVKFLNGMAGCRAYATTAGFESICEAMYLGKPVLMVPAHIEQDCNAHDAMRAGAGIISDSFDLKPLLRFAGTYSPNRTFVRWVRSGERRIILELEKLAASQSAITSIPTFTNYLPI”, which “soluble on expression in E. coli” value is on record?
A: not soluble

Q: With “MGSDKIHHHHHHMKFPERFAHLPPYAFPRLRALLDHHAPGGDVVQLTIGEPKHEFPAWVTDVIVENASAFNNYPQNEGSDALRGAMADWAAQRYGVTLDPATRVMALNGTREGLYNAAMALCPEEKNGQRPVVLIPNPFYQVYMIAAISVAAEPVFVPATDETGHLPDYASLPEEVLNRTAIAYICSPANPQGAVASREYWQQLFALAEKYDFKVFADECYSEIYRDTAPVGALTVADEMGLDPERVVLFNSLSKRSNLPGLRCGLLAGGPETLVQVKKLRAYSGAPIPGPLQAAAAKVWADEVHVAENRALYQEKYRIADEVFAGLNGYMSPEAGFFLWLPVEDGEAATLKLWQETGVRVLPGAFLAQGKGAENPGHGYIRVALVASEEQTRASLQLLRDCLY” as the sequence, how does the “soluble on expression in E. coli” value read?
A: not soluble

Q: Which “soluble on expression in E. coli” value does the source give for “MGSDKIHHHHHHMKFYNRENELAELQRIQELSFEENSRLTVVTGRRRIGKTSLIMRAFEKTPTIYLFVGRKNEASLCREFITLVSQALDIYVPEEISTFKSLFRYIMEVATRQSFNLVIDEFQEFYNINKSIYSDIQDIWDQYRQKTHMNFVVSGSIYSLMEKIFHNEKEPLFGRADNIIKLSAFSLNVLKKIIKDYHPQYTNDDLLALYSFSGGVPKYVELFCDNRVLTVDGMIDFMVRDNSPFTDEGKNLLIEEFGKNYGTYFSILSAISGGYNTQTEIEALLGEKSLGGYLKRLIEDYNIVVRQRPVFSKEGSQTVRYGICDNFIHFWFNYFDRNRSLIEIKNFIGLRKLIKADYPTYSGKILEQYFKQKYAESYEFRLIGSWWEPKGNQNEIDIVAIYLDNKSAIVAEVKRQKKNFKPELFQKKVEHLENKVLAKYQINTVCLSLEDM” here?
A: not soluble

Q: With “MGSDKIHHHHHHMKICVLYSGGKDSTYALHWAVFKGFEVVCLITLIPKREDSWMFQYPNVIYTKYQAEAMDFKLITFGTSGEKDKELEDLKKALLQAKNEGADGIVSGALLSDYQRLNISIIAEELGLKTYTPLWRKSQEEYMRWLVKEGFKFIITSASAYGFPFDLVGKEITTEDVEKIIERARRYGFNPAFEGGEAETFVTYAPLFKTQLRVNGKLKRISEYECRYEITDIH” as the sequence, how does the “soluble on expression in E. coli” value read?
A: not soluble

Q: With “MGSDKIHHHHHHMKIEFDVVVVGAGPSGLSCAYVLAKNGLKVAVVEKGEYPGSKNVMGGVLYVHPLKEIMPDFLEKAANSKALERNVIEQNLWLLGNEGVIKIGHRNVEWKENPNAFTVLRANFDRWFAQEVEKAGALIIPKTKVEDFLRNEKGEIAGVVTSRPKGEIHSKAVVIAEGVNPILTMKAGLRKEDLKPHMVAVAVKEVISVPEDVVNRVFGVEGNDGATIELLGSWSEGMFGMGFLYANRSSVSLGCGVLLEDLRKKKIKPYQLLENLKNHPVISDMLGEYRNNTMEYLAHLIPEGGYYAMPKVYGDRVLVCGDAAMLVNSIHREGSNHAITSGRLAAETLLEAFEKGDFSEKILKNYYLRLKESFILKDLEKYKDLMPTMEKNHQFVEIYPDLANDALKRFLQVDGTPKWDVQKQIADMVLSRRSLIGISLDLLRFWRAVR” as the sequence, how does the “soluble on expression in E. coli” value read?
A: not soluble

Q: For “MGSDKIHHHHHHMKIKIGKVEKRLNQIIEEEGAVYLTLLDPEEENIEEIAENVKDYADAIMVGGSIGIVNLDETVKKIKKITKLPIILFPGNVDGLSRYADAVFYMSLMNSANTYWVVTAPTLGAITILKYNLEPIPMAYLCIEPAKKTAVGYVGEIREIPQNKPKITAMYCLSAKFFGMRWAYLEAGSGASYPVNNETIALSKKLSGINIIVGGGIRKPEIAYEKVLAGADAIVTGNLLEENPKAVEMMYDAIKKAGKEKLKNK”, which “soluble on expression in E. coli” value is on record?
A: not soluble

Q: For “MGSDKIHHHHHHMKILHYIPSIDRTSGGVGTYMQLLTAELGKLVELHVVTHKETNPLELKNCHVHFIENNNPFLPKEKKNFIFLLNEIKPDVFHANCCWLPMSAYTAMWARNAGYHVVYTPHGMLEPWIMKRHYWTKKFPASLLFQKRGIQIANVIHATAESEKHNLTQLGWNNNIEVIPNCVEIDKITMKESWIRNKNILFLSRVHVKKGINFLIEATANLKTELQGYTINIAGEGEESYINELKQLASKLGVENLIHFIGGVYGDKKWELFKKADLFVLPTHSENFGIVVAEALACGTPVITTQGTPWQELESYHCGWWTEIGTEATTKALKEFLQCTETQLEQMGKNGRKLIEEKYSSQKVAQDMVELYKKVCL”, which “soluble on expression in E. coli” value is on record?
A: not soluble

Q: With “MGSDKIHHHHHHMKISERQKDLLKEIGNIGAGNAATAISYMINKKVEISVPNVEIVPISKVIFIAKDPEEIVVGVKMPVTGDIEGSVLLIMGTTVVKKILEILTGRAPDNLLNLDEFSASALREIGNIMCGTYVSALADFLGFKIDTLPPQLVIDMISAIFAEASIEELEDNSEDQIVFVETLLKVEEEEEPLTSYMMMIPKPGYLVKIFERMGIQE” as the sequence, how does the “soluble on expression in E. coli” value read?
A: not soluble

Q: With “MGSDKIHHHHHHMKIVFITTVASSIYGFRAPVIKKLIGKNHQVYAFVSEFSDNELDIIREMGVTPVTYRSNRSGVNPFSDIKSTFLIFKALKKISPDLVFPYFAKPVIFGTFAAKLAGVPRIVGMLEGLGFAFTPQPEGIPLKTKIIKGILIALYRIALPMLESLIVLNPDDKDELLHQYGIKIKNIHILGGIGLDLRQYPYSEADIPDEKEPVKFLFIGRFLKEKGIDDFIRAAEQVKGKYPDTVFTALGAIDKSRGGGGDLERFIARDIIRFPGFVNNVSEVIKAHHIFVLPSYYREGVPRSTQEAMAVGRAVITTDVPGCRETVADKVNGFLIEPWNPRILAEKMIYFIENRAAVRLMANASYAIAKDKFDAEKVDLKFLDILKA” as the sequence, how does the “soluble on expression in E. coli” value read?
A: not soluble

Q: Which “soluble on expression in E. coli” value does the source give for “MGSDKIHHHHHHMKIYCSKDSLITGVNTVQKAVSNKNTLPVLQGIMIRAEGQSLIFEATDLEIGIRCVVPAQVEKEGVVVLPSRLFSDLVCKLPDVLIELELQNDVINIHYNESDLSLRGYDPEEFPLLPDLFDAETFNLPVSIFKTMIKQTIFACSAEESRPVFTGCLLQIEDGSLRLIATDTHRLAYRIAEISNPEQIKFQGIIPAKTLGEIYRLLRDEDENLFIRFNQAQIVFQFGAVHLLSRLIEGQFPNYKQVIPQSCQTKVLLSARLFQDSVERASLLARDGSHTSIIKLSVDTERLSIDQTSELGKISEQMEVKKEGNDVKIAFNSKFLLDVLKIIDSEEIVFELSGSYSPGIIRPVDDPNYLYLALPVRTS” here?
A: not soluble

Q: Which “soluble on expression in E. coli” value does the source give for “MGSDKIHHHHHHMKIYRVGGSVRDELLGLPVKDQDYVVVGATPEEMVRLGYRPVGKDFPVFLHPETHEQYALARTERKIARGYKGFEVYAAPGVTLQEDLARRDLTINAMARDEAGDIVDPFGGIADLQAGILRHIGPAFVEDPVRVLRVARFAARFGFQIAPETLELMKEIVHTGETEALVPERVWQEIAHGLMESHPSRMFYVLRECGALARILPEVDALFGVPQPAHAHPEIDTGIHVMMVIDHAASKQYPLEVRFAGLTHDLGKGTTSPDEWPRHIGHEARSVELVMGLCERIRVPGESRDLALLVARFHGDVHRALELRPATIADMLQATDAYRKKARFQAFLQACASDFHGRPGFADKPYPQKEHLSRALQVAVDVDAGAIAMQLNQSHAGKADLPMRINRQVYAARVERISSLLSHL” here?
A: not soluble

Q: With “MGSDKIHHHHHHMKKIGIIGGGQLGKMMTLEAKKMGFYVIVLDPTPRSPAGQVADEQIVAGFFDSERIEDLVKGSDVTTYDLEHIDVQTLKKLYNEGYKIHPSPYTLEIIQDKFVQKEFLKKNGIPVPEYKLVKDLESDVREFGFPVVQKARKGGYDGRGVFIIKNEKDLENAIKGETYLEEFVEIEKELAVMVARNEKGEIACYPVVEMYFDEDANICDTVIAPARIEEKYSKIAREIATSVVEALEGVGIFGIEMFLTKQGEILVNEIAPRPHNSGHYTIEACVTSQFEQHIRAIMNLPLGSTELLIPAVMVNLLGEEGYYGKPALIGLEEALAIEGLSLHFYGKKETRPYRKMGHFTVVDRDVERALEKALRAKKILKVVSEEGAMCQG” as the sequence, how does the “soluble on expression in E. coli” value read?
A: not soluble

Q: With “MGSDKIHHHHHHMKKIGLTTTVPIEVLLSAGYTPIDLNNIFVGSKDYSKYIDIAEKDGFPKSLCAWIKGIYGACISNDIKEIVGVHDGDCSNTKALTEVLSMKGIKVYPFSYPSSHNINDVKDELDAFMNLFHVTLNQVEKIRTRLNKLRELGIEIDKLTFEDNKATALENHIWQISFSDLNGDIDAFNSDLIKTIADIKKREASSSKLRLGYIGVPPMTPDIYEFVTNFDAKIVYNEVQREFAFPRSSKAKDIYEQYFDYTYPYDVYFRIDEISRQIEERHIDGIIHYTQAFCYRAVQDIVIKEKLRVPVINIEGDRLNHLDARTKLRLEAFLDMLLDSKEGIF” as the sequence, how does the “soluble on expression in E. coli” value read?
A: not soluble

Q: With “MGSDKIHHHHHHMKKLIDYLKANKITEVECVISDMTGIARGKIAPVDKFIDEKGMRLPESVLLQTVTGDYVDDDLYDSLLDKADIDFVCVPDENAVFMLPWTVEATAQVIHDTFDKMGNPIELSPRNLLKKVLKLYEDKGWKPVIAPEMEFYLTHRNSDPDMPLIPPVGRSGRKESGRQSFSIDAANEYDPLFEDMYDWCEAQGLDIDTLIHEEGTAQMEINFSHGDALSLADQVFVFKRTLREAALKHDVCATFMAKPVTDEPGSAMHIHQSVVDIKTGKNIFTNEDGTKSAKFLCYIGGLQKYIPELLPLMAPNVNSFRRFLPGTSAPVNLEWGDENRTCGLRIPESSPQNRRIENRIAGADANSYLAIAATLLCGYMGMVEDVKPSTPVQGRANENRQGISLPLTLEEALAVMSESSAVREYLGDTFTSGYIAVKQADLENFRRVISSWEREFLLLTV” as the sequence, how does the “soluble on expression in E. coli” value read?
A: not soluble
